Data as given in publication PMC5887453 (Nucleic Acids Research, 2018).
Residue numbers refer to the chain shown, from its start.

Legend:
Test in all cases: native gel or EMSA
[1] = molecular target: T1, PhoEF-2 F171S (Pyrococcus horikoshii, UniProt O59521 1-732, F171S)
T1 sequence (looked up): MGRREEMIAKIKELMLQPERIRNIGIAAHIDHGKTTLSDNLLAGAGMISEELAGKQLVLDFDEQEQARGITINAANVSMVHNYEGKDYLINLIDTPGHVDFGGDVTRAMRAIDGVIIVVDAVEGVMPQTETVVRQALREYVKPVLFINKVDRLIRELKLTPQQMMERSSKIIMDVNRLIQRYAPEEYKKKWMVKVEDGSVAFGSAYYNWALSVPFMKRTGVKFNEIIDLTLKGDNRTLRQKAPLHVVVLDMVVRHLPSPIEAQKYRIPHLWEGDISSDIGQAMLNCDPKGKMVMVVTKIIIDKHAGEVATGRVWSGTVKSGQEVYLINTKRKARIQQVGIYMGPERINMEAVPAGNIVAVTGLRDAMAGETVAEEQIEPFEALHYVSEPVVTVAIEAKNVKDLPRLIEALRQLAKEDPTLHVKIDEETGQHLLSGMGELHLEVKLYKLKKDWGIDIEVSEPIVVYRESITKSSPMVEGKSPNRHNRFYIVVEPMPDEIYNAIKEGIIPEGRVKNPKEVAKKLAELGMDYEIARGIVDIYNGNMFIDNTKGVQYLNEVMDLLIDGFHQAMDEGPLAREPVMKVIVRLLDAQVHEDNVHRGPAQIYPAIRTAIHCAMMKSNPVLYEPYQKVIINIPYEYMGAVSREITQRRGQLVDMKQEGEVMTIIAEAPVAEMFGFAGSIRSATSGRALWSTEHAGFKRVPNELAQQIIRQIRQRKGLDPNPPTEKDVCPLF

[2] = molecular target: T2, Pyrococcus horikoshii elongation factor 2 (PhoEF-2), wild type (Pyrococcus horikoshii, UniProt O59521 1-732)
T2 sequence (looked up): T1 sequence (looked up) with S168F

[3] = molecular target: T3, PhoEF-2 P164S (Pyrococcus horikoshii, UniProt O59521 1-732, P164S)
T3 sequence (looked up): T1 sequence (looked up) with P161S, S168F

Measured: binding result

B1: Pyrococcus horikoshii ribosomal stalk protein P1 (natural protein, UniProt O57705 1-108, looked up)
chain: MEYVYAALLLHSVGKEINEENLKAVLQAAGVEPEEARIKALVAALEGVNIDEVIEKAAMPVAVAAAPAAAPAEAGGEEKKEEEKKEEEEKEEEVSEEEALAGLSALFG
modifications: in the SPR only: biotin on amino groups via a PEG linker (EZ-Link NHS-PEG4-Biotin)
binds: all assays above
